Patent US20160041176A1 (NATIONAL UNIVERSITY CORPORATION NAGOYA UNIVERSITY, published 2016)
Positions count from the first letter of the chain named. Blank lines part the entries; values can stand above or below the molecule they belong to.

What was measured:
[1] = biological target: F-actin (filamentous actin); assay: actin cosedimentation, 1 µM GST-CT2 with 0-2.5 µM F-actin, Scatchard analysis
[2] = test system: T1, GST-CT (GST-fused CT domain of Girdin)
T1 sequence: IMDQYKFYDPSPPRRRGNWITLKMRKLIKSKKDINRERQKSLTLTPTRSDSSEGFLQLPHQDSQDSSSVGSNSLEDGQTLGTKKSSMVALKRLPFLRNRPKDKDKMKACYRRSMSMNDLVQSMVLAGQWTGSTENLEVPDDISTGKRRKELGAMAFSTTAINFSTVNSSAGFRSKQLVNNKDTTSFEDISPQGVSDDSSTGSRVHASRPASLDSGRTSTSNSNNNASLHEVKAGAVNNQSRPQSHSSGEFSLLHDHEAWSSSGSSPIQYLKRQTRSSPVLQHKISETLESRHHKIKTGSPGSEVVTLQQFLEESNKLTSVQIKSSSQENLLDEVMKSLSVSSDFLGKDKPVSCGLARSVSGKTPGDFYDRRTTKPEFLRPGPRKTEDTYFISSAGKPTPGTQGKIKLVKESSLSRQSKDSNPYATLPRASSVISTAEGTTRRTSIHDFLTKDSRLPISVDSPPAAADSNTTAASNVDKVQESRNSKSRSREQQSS

[3] = test system: T2, Girdin CT-V5 SA mutant (serine 1416 replaced with alanine)
T2 sequence: T1 sequence with S41A

[4] = test system: T3, Girdin CT-V5 wild type (WT)
T3 sequence: T1 sequence

[5] = test system: T4, V5 epitope-tagged NT domain of Girdin (NT-V5)
T4 sequence: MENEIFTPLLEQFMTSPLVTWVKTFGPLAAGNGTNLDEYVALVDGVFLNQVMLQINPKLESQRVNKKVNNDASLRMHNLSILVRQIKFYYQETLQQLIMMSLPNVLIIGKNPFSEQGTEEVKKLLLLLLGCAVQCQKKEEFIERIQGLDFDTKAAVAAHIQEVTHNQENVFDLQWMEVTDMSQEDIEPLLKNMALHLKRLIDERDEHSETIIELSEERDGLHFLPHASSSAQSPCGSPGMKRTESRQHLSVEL

[6] = test system: T5, coiled-coil domain of Girdin tagged with V5
T5 sequence: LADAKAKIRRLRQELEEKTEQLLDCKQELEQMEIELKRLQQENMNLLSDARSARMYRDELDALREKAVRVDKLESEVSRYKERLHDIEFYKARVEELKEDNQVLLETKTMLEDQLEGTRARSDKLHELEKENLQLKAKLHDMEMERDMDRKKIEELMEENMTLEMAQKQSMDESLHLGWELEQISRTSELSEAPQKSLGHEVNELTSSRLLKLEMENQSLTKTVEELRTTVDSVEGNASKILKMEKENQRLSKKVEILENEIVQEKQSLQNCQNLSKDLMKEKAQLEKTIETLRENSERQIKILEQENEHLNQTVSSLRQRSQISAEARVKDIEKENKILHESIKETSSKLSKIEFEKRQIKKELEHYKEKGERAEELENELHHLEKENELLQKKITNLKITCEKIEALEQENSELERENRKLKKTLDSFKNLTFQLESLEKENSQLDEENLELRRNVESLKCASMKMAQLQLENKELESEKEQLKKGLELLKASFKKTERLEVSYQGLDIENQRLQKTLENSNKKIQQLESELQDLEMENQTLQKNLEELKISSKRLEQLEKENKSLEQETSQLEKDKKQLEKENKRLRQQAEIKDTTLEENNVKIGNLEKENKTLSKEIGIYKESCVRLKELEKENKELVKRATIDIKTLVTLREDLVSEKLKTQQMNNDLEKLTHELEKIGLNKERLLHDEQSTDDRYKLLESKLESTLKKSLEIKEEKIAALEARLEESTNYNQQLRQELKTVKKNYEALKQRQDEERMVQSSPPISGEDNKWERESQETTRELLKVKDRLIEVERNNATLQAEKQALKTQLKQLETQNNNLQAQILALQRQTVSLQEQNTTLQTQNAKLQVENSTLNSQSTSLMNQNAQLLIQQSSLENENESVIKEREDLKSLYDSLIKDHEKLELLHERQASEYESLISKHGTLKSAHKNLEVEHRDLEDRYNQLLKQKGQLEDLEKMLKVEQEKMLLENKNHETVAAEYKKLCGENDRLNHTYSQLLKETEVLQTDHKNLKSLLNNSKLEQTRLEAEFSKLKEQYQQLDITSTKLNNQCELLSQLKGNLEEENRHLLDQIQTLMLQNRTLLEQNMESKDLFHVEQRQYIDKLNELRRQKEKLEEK

[7] = biological target: the molecule itself; assay: expression in COS7 cells, coimmunoprecipitation (data not shown)

- Kd [1]: 1030 nM
Molecule: glutathione S-transferase (GST)-fused CT2 of Girdin (GST-CT2) (from UniProt Q3V6T2 1624-1871)

Molecule: recombinant active Akt (Upstate)
- in vitro kinase assay (phosphorylation detected by anti-P-Girdin antibody) [2]: Purified GST-CT was effectively phosphorylated by Akt in vitro
- in vitro kinase assay (phosphorylation, autoradiography) [3]: but not its Ser-1416 substituted with Ala mutant (SA), was phosphorylated by active Akt
- in vitro kinase assay (phosphorylation, autoradiography) [4]: Girdin CT wild type (WT) ... was phosphorylated by active Akt
- in vitro kinase assay (phosphorylation, autoradiography) [5]: neither the NT nor the coiled-coil domain of Girdin was phosphorylated by Akt in vitro
- in vitro kinase assay (phosphorylation, autoradiography) [6]: neither the NT nor the coiled-coil domain of Girdin was phosphorylated by Akt in vitro

B1: CT domain of Girdin (expressed in cells, oligomerisation test) (other)
chain: T1 sequence
- binding result [7]: no binding
